The text below walks through data of US20200332005A1.

The target in the assay is N-terminal of CD73. As to the kind of experiment: plate binding assay, axis Binding activity (OD450) against Ab (µg/ml); panel Binding to N-terminal of CD73.

As for MEDI-9447 (Medimmune) (antibody), the EC50 (read off the curve) was 0.01 µg/mL.

By EC50 (read off the curve) is commonly meant the concentration at which the effect is half-maximal.
